This is an account of results in publication PMC4429956.

Experiment in all cases: SPR
The target of one assay is PI3P. Particulars: parent: est. 370; read off a plot.
The next assay deals with PI5P. As to conditions: parent: est. 460; read off a plot.
The target in a further assay is PI(4,5)P2. Particulars: parent: est. 240; read off a plot.
Assay [1] has as its target histone H3 peptide trimethylated at lysine 4. Particulars: parent: est. 490; read off a plot.

Take “GST-TAF3 PHD finger, wild type D890; W891”: the response with PI3P is 270 RU; with PI5P, 400 RU; with PI(4,5)P2, 120 RU.
Regarding “GST-TAF3 PHD finger, wild type K922; K923; K925; K926; R927; K928”, the response in assay [1] was 570 RU.
